Consider one molecule from patent US5503975, “Mechanism based inhibitors of DNA methyltransferase” (City of Hope).

In the data set the target is DNA (cytosine-5) methyltransferase (Homo sapiens, UniProt P26358 P26358:1-1616). Description: tritiated AdoMet methyl transfer, 37 C, HEPES pH 7.0, 50 mM NaCl, 75 uM spermine; methyl at short arm end stimulates rate. Particulars: tags: none; purified from human placenta (partially purified/crude preparation for the covalent complexes); gapped foldback with L5 linker loop. As for the experimental part:
For the determination of initial velocities with oligodeoxynucleotide substrates, the enzyme was dialyzed for 3 hours in a Hoefer microdialyzer (Health Products Inc., Rockford, Ill.) against 38 mM glycine, 17% v/v glycerol, 5 mM Tris, 10 mM β-mercaptoethanol, pH 7.8 at 4° C. The final reaction volume of 100 μl contained: 0.4 μg total DNA, 50 mM HEPES pH 7.0, 50 mM NaCl, 2 mM DTT, 75 μM Spermine, 10% v/v glycerol and […] [^3H]AdoMet (Amersham, 15 Ci/mmole). Reaction mixtures were preincubated at 37° C. for 15 minutes before the addition of 44 U of DNA methyltransferase to initiate the reaction. The reaction rate was linear under these conditions for 30 minutes. After 20 minutes of incubation, the reactions were stopped by the addition of 5 ml of cold TCA (5% w/v TCA containing 5 mM potassium pyrophosphate). Tritium incorporated into TCA insoluble DNA was determined as previously described (Smith, S. S., supra).

DNA (cytosine-5) methyltransferase, sequence (P26358 whole entry, one chain of several): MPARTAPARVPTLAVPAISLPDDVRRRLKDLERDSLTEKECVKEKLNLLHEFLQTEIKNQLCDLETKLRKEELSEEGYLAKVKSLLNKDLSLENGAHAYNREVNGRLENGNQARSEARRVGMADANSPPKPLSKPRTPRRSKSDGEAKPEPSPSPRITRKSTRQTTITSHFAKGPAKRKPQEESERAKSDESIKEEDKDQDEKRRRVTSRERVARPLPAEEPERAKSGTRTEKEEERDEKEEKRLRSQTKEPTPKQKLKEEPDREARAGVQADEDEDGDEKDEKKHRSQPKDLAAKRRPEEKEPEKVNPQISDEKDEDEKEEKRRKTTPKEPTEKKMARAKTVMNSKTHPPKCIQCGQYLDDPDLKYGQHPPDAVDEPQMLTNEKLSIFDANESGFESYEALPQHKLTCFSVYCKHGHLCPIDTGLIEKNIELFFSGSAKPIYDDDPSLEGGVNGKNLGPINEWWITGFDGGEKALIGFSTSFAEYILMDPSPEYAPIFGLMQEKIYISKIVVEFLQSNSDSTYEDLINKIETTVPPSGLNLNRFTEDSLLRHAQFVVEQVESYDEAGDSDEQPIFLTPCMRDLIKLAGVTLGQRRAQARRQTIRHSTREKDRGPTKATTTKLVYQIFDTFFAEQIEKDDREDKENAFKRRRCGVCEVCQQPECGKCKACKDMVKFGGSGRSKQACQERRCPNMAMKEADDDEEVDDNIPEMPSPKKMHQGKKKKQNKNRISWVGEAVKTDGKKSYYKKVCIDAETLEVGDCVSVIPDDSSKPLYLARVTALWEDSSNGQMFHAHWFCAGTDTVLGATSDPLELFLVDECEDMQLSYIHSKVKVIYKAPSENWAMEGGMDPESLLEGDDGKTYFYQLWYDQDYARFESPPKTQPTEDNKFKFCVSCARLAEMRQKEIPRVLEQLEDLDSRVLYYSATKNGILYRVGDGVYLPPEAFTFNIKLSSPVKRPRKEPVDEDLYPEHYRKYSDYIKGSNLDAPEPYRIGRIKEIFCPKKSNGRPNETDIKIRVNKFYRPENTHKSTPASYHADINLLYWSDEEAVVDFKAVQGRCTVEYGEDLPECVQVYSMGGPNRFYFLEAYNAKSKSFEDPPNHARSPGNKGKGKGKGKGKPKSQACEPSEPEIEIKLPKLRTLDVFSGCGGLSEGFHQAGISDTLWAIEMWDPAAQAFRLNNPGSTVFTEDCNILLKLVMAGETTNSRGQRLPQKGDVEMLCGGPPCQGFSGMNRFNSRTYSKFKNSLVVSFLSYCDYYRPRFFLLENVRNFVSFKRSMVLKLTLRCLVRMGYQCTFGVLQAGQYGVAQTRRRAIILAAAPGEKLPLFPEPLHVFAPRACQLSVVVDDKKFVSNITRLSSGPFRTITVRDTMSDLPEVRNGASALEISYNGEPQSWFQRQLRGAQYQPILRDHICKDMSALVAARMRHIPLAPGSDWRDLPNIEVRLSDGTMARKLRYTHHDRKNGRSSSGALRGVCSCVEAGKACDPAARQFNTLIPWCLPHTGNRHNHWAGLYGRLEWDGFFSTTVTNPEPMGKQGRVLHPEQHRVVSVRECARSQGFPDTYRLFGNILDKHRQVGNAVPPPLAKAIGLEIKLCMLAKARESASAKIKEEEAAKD

B1: 48L-1 (structured_DNA)
DNA: TCGAGGCCAGGTAGCCCGGATCTGGTGGACGTCCACCAGATCC
modifications: five non-nucleotide linker units between 30mer and 13mer; 5mC at end of short arm
B1 gave an activity greater than 100 fold stimulation.
